In US20200369728A1, “PEPTIDOMIMETIC MACROCYCLES AND USES THEREOF” (Aileron Therapeutics, Inc., priority 2015, published 2020):
Values joined by “and” are separate entries in the source; they are usually repeats but may differ in a detail not shown here. Identical values can stand only once. Bridge positions count the residues as written; N and C are the ends. Square brackets hold non-standard residues; d marks the D form. R8 = C=CCCCCCC[C@@](C)(N)C(=O)O; Cba = N[C@@H](CC1CCC1)C(=O)O; S5 = C=CCCC[C@](C)(N)C(=O)O

What was measured:
[1] = test system: DOHH-2; experiment: WST-1 / MTT cell viability, DOHH-2; type: cell-based, human; settings: for IC50: Homo sapiens, DOHH-2, 72 h
Description: Initially, various DOHH-2 cell numbers were plated and evaluated 3-7 days later to determine the optimal number of cells to be plated and treatment duration.
(§1) A drug combination index plot was used to assess the synergistic, additive, or antagonistic properties of each combination treatment. […] Combination index (CI) values were calculated using the CompuSyn software. The data were expressed as log(CI).
The anticancer activity of the combination treatment was assessed based on the order of addition of the drugs.

[2] = test system: MCF-7; experiment: WST-1 / MTT cell proliferation assay, MCF-7 (single agents and combinations); type: cell-based, human; settings: for IC50: Homo sapiens
Description: All media were supplemented with 10% (v/v) fetal calf serum, 100 units penicillin and 100 μg/ml streptomycin at 37° C. and 5% CO2. Prior to dosing, MCF-7 cells were switched to serum free medium and grown at 37° C. overnight.
One day prior to assaying, cells were trypsinized, counted and seeded at pre-determined densities in 96-well plates as follows: MCF-7, 5000 cells/well/200 μl; MOLT-3, 30,000 cells/well/200 μl. […] The WST-1 variant of the MTT assay was used to measure cell viability according to the manufacturer's protocol. WST-1 is a cell-impermeable, sulfonated tetrazolium salt that can be used to examine cell viability without killing the cells.
Combination index (CI) values were calculated using the CompuSyn software. The data were expressed as log(CI).
Cells were evaluated for viability by WST-1 assay or MTT assay 3-7 days after beginning the simultaneous treatments (FIGS. 25, 30 and 31).
Cells were evaluated for viability by WST-1 assay or MTT assay 3-7 days or 120 hrs after beginning treatment (FIGS. 24A and 35). […] Cells were evaluated for viability by WST-1 assay or MTT assay 3-7 days after beginning the simultaneous treatments (FIGS. 36 and 37).

[3] = molecular target: MDM2 (In-house, 41 kD) (UniProt Q00987); experiment: competitive fluorescence polarization, displacement of FAM-labeled linear peptide from MDM2; grade decoded by the scale of Table 4
[4] = molecular target: T1, MDMX (In-house, 40 kD) (UniProt O15151); experiment: competitive fluorescence polarization, displacement of FAM-labeled linear peptide from MDMX; grade decoded by the scale of Table 4
T1 sequence (looked up): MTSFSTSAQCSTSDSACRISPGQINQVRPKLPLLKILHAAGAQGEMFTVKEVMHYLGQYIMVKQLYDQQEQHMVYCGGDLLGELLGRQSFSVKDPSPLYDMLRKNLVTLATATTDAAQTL

[5] = test system: MV4-11; experiment: WST-1 / MTT cell viability, MV4-11; settings: MV4-11, sequential treatment, 72 hrs
Description: Initially, various MV4-11 cell numbers were plated and evaluated 3-7 days later to determine the optimal number of cells to be plated and treatment duration.
Cells were evaluated for viability by WST-1 assay or MTT assay 3-7 days after beginning treatment.
as §1

[6] = molecular target: T2, MDM2 (In-house, 41 kD) (UniProt Q00987 1-125, limits assumed); experiment: competitive fluorescence polarization, displacement of FAM-labeled linear peptide from MDM2; grade decoded by the scale of Table 4
T2 construct: Construct limits and any tag are unknown; also called HDM2

[7] = molecular target: T3, MDMX (In-house, 40 kD) (UniProt O15151 1-120, limits assumed); experiment: competitive fluorescence polarization, displacement of FAM-labeled linear peptide from MDMX; grade decoded by the scale of Table 4
T3 construct: Construct limits and any tag are unknown; also called MDM4
T3 sequence (looked up): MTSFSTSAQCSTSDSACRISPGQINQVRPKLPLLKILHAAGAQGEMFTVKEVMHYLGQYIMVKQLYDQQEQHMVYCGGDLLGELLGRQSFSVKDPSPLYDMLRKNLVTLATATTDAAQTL

[8] = molecular target: T4, MDMX (In-house, 40 kD) (UniProt O15151 1-120, limits assumed); experiment: competitive fluorescence polarization vs FAM-labeled linear peptide; column IC50 (MDMX); grade means >1000 nM
T4 construct: also called MDM4
T4 sequence (looked up): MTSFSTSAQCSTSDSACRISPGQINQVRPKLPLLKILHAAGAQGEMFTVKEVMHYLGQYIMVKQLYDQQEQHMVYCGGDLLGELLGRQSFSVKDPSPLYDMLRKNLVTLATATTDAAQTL

[9] = molecular target: T4, MDMX (In-house, 40 kD); experiment: competitive fluorescence polarization vs FAM-labeled linear peptide; column Ki (MDMX); grade means >1000 nM

MDM2 (In-house, 41 kD) (UniProt Q00987), sequence (Q00987 1-125 limits assumed): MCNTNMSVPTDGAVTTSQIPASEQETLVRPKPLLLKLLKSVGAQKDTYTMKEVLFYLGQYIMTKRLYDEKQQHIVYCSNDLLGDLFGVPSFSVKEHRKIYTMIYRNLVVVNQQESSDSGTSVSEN
T2 sequence (Q00987 1-125 limits assumed): as above

**Q.** Which “order of addition: effect on cell growth, AP1 and CTX” value ([1]; DOHH-2, sequential treatment, 72 hrs) does the source give for `O=P1(N(CCCl)CCCl)NCCCO1` (centres unmarked) [CTX, cyclophosphamide, reference compound] here?
**A.** The value was “suppressed DOHH-2 cell growth with or without AP1”.

**Q.** And the IC50 ([1]; CTX + 0.07 μM AP1, DOHH-2, 72 hours)?
**A.** Its IC50 is 411 µM.

**Q.** What about the IC50 ([1]; CTX + 0.2 μM AP1, DOHH-2, 72 hours) of the same molecule?
**A.** Its IC50 is 172 µM.

**Q.** And the IC50 ([1]; CTX + 0.6 μM AP1, DOHH-2, 72 hours)?
**A.** The IC50 was 258 µM.

**Q.** And the IC50 ([1]; CTX alone)?
**A.** Its IC50 is 1980 µM.

**Q.** How did the IC50 ([2]; MCF7, FUL + 0.4 μM Aileron peptide 1, MCF-7) turn out when `C[C@]12CC[C@@H]3c4ccc(O)cc4C[C@@H](CCCCCCCCC[S+]([O-])CCCC(F)(F)C(F)(F)F)[C@H]3[C@@H]1CC[C@@H]2O` (some centres unmarked) [fulvestrant, reference compound] was run?
**A.** The IC50 was 0.000261 µM.

**Q.** What about the IC50 ([2]; MCF7, FUL alone, MCF-7) of the same molecule?
**A.** The IC50 was 0.000768 µM.

**Q.** And the “effect on MCF-7 cell proliferation” value ([2]; single agent, 5 days)?
**A.** Its value is “inhibited MCF-7 breast cancer cell proliferation with limited cell killing as a single agent”.

**Q.** What does the source list for “SP752, Ac-t$r5wya$r5f4CF3ekllr-NH2 (peptide)”?
**A.** IC50 [3]: > 0.1 µM and < 1 µM; IC50 [4]: > 1 µM

**Q.** How did the “order of addition: effect on cell growth, AP1 and azacitidine” value [5] turn out when `Nc1ncn([C@@H]2O[C@H](CO)[C@@H](O)[C@H]2O)c(=O)n1` [azacitidine, reference compound] was run?
**A.** Its value is “suppressed MV4-11 cell growth with or without AP1”.

B1: SP716, Ac-LTF$r8EYWAQCba$AAA-NH2 (iso2) (peptide)
peptide: Ac-LTF[R8]EYWAQ[Cba][S5]AAA-NH2
modifications: staple 4-11; also: single isomer iso2
notes: stapled peptidomimetic macrocycle, isomer iso2
**Q.** B1 was tested. Which Ki [6] did it give?
**A.** Its Ki is at most 0.01 µM.

**Q.** What about the Ki [7] of the same molecule?
**A.** Its Ki is at most 0.01 µM.

B2: SP252 (peptide)
peptide: LTAAEYWAQAASAA
modifications: not fully specified; N-terminal acetyl (Ac); $r8 = alpha-Me R8-octenyl-alanine and $ = alpha-Me S5-pentenyl-alanine joined by an all-carbon crosslinker; Cba = cyclobutyl alanine; C-terminal amide (NH2)
notes: also called Ac-LTA$r8EYWAQCba$SAA-NH2
**Q.** What does the source list for B2?
**A.** IC50 [8]: > 1 µM; Ki [9]: > 1 µM

B3: SP250 (peptide)
peptide: ETFAEYWAQAASAA
modifications: not fully specified; N-terminal Pam cap (abbreviation not explained in the filing); $r8 = alpha-Me R8-octenyl-alanine and $ = alpha-Me S5-pentenyl-alanine joined by an all-carbon crosslinker; Cba = cyclobutyl alanine; C-terminal amide (NH2)
notes: also called Pam-ETF$r8EYWAQCba$SAA-NH2
**Q.** How did the IC50 [8] turn out when B3 was run?
**A.** The IC50 was over 1 µM.

**Q.** And the Ki [9]?
**A.** The Ki was over 1 µM.

B4: SP615, Ac-LTF$r8EpYWAQL$AAAAAa-NH2 (peptide)
peptide: LTFAEYWAQLAAAAAAA
modifications: not fully specified; N-terminal acetyl; $r8 at 4 crosslinked by all-carbon olefin staple to $ at 11; pY at 6 (abbreviation not defined in the filing); D-Ala (a) at C-terminus; C-terminal amide
**Q.** B4 was tested. Which Ki [3] did it give?
**A.** Its Ki is under 0.01 µM.

**Q.** What about the Ki [4] of the same molecule?
**A.** The Ki was under 0.01 µM.

B5: SP712, Ac-LTF$r8HYWAQCba$SAA-NH2 (iso2) (peptide)
peptide: LTFAHYWAQAASAA
modifications: not fully specified; N-terminal acetyl; $r8 at 4 crosslinked by all-carbon olefin staple to $ at 11; Cba (cyclobutyl alanine) at 10; C-terminal amide; single isomer iso2
notes: as for B1
**Q.** For B5, which Ki [6] is on record?
**A.** Its Ki is at most 0.01 µM.

**Q.** And the Ki [7]?
**A.** The Ki was at most 0.01 µM.

B6: SP713, Ac-LTF$r8SYWAQCba$SAA-NH2 (iso2) (peptide)
peptide: LTFASYWAQAASAA
modifications: not fully specified; N-terminal acetyl; $r8 at 4 crosslinked by all-carbon olefin staple to $ at 11; Cba (cyclobutyl alanine) at 10; C-terminal amide; single isomer iso2
notes: as for B1
**Q.** What does the source list for B6?
**A.** Ki [6]: ≤ 0.01 µM; Ki [7]: ≤ 0.01 µM

B7: SP602, Ac-LTF$r8GlaYWAQL$AAAAAa-NH2 (peptide)
peptide: LTFAEYWAQLAAAAAAA
modifications: not fully specified; N-terminal acetyl; $r8 at 4 crosslinked by all-carbon olefin staple to $ at 11; Gla at 5 (abbreviation not defined in the filing); D-Ala (a) at C-terminus; C-terminal amide
notes: stapled peptidomimetic macrocycle
**Q.** How did the Ki [6] turn out when B7 was run?
**A.** The Ki was at most 0.01 µM.

**Q.** What about the Ki [7] of the same molecule?
**A.** The Ki was at most 0.01 µM.

B8: SP603, Ac-LTF$r8F4gYWAQL$AAAAAa-NH2 (peptide)
peptide: LTFAFYWAQLAAAAAAA
modifications: not fully specified; N-terminal acetyl; $r8 at 4 crosslinked by all-carbon olefin staple to $ at 11; F4g at 5 (abbreviation not defined in the filing); D-Ala (a) at C-terminus; C-terminal amide
notes: as for B7
**Q.** B8 was tested. Which Ki [6] did it give?
**A.** Its Ki is at most 0.01 µM.

**Q.** And the Ki [7]?
**A.** Its Ki is at most 0.01 µM.

B9: SP600, Ac-LTF$r8QYWAQL$AAAAAa-NH2 (peptide)
peptide: LTFAQYWAQLAAAAAAA
modifications: not fully specified; N-terminal acetyl; $r8 (alpha-Me R8-octenyl-alanine) at 4 crosslinked by all-carbon olefin staple to $ (alpha-Me S5-pentenyl-alanine) at 11; D-Ala (a) at C-terminus; C-terminal amide
notes: as for B7
**Q.** With B9 as the molecule, how does the Ki [6] read?
**A.** Its Ki is at most 0.01 µM.

**Q.** And the Ki [7]?
**A.** The Ki was at most 0.01 µM.
